Values quoted from earlier work as cited in patent publication US20040063697A1, “Compositions of cyclooxygenase-2 selective inhibitors and thrombolytic agents for the treatment or prevention of a vaso-occlusive event” (priority 2002, published 2004).

Experiments:
[1] = not given; remark: listed apart in the source
plasminogen = plasminogen (Homo sapiens, UniProt P00747)
plasminogen, sequence (P00747 20-810 limits assumed): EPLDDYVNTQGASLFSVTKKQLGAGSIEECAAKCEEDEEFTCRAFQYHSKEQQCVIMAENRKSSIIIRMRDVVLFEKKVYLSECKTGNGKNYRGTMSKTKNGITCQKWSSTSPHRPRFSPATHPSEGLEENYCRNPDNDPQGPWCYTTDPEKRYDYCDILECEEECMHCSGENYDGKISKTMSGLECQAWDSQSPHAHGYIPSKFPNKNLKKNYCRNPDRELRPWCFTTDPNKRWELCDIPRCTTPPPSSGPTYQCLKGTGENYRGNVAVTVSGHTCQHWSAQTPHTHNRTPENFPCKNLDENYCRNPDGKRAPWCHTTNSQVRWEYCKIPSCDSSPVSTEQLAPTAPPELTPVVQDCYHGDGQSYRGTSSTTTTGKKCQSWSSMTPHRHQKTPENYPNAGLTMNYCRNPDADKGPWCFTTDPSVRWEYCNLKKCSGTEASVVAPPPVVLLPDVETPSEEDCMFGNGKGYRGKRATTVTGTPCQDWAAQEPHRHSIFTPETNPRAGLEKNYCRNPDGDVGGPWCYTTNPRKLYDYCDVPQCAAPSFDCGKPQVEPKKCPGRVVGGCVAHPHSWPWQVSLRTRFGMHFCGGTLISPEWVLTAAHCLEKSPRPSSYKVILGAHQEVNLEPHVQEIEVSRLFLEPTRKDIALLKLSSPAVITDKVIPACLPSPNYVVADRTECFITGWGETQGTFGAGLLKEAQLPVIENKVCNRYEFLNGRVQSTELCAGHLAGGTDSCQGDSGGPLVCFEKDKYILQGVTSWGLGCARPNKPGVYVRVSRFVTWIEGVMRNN

B1: Tenecteplase: human derivative of t-PA (protein, UniProt P00750 36-562, looked up, variant T103N N117Q K296A H297A R298A R299A)
Tissue-type plasminogen …: SYQVICRDEKTQMIYQQHQSWLRPVLRSNRVEYCWCNSGRAQCHSVPVKSCSEPRCFNGGTCQQALYFSDFVCQCPEGFAGKCCEIDTRATCYEDQGISYRGNWSTAESGAECTNWQSSALAQKPYSGRRPDAIRLGLGNHNYCRNPDRDSKPWCYVFKAGKYSSEFCSTPACSEGNSDCYFGNGSAYRGTHSLTESGASCLPWNSMILIGKVYTAQNPSAQALGLGKHNYCRNPDGDAKPWCHVLKNRRLTWEYCDVPSCSTCGLRQYSQPQFRIKGGLFADIASHPWQAAIFAAAAASPGERFLCGGILISSCWILSAAHCFQERFPPHHLTVILGRTYRVVPGEEEQKFEVEKYIVHKEFDDDTYDNDIALLQLKSDSSRCAQESSVVRTVCLPPADLQLPDWTECELSGYGKHEALSPFYSERLKEAHVRLYPSSRCTSQHLLNRTVTDNMLCAGDTRSGGPQANLHDACQGDSGGPLVCLNDGRMTLVGIISWGLGCGQKDVPGVYTKVTNYLDWIRDNMRP
Elimination (in vivo): Hepatic | Half-Life (in vivo): 20 to 25 min | plasma clearance time and half-life (in words): lower plasma clearance time and a longer half-life | Antigenicity ([1]; in vivo): No | immune response ([1]; when administered to a human): no immune response is elicited | Method of Plasminogen Activation (plasminogen): Direct
